Non-standard residues stand in square brackets, D forms with d. Ala(4-thiazolyl) = N[C@@H](Cc1cscn1)C(=O)O; 2Pal = N[C@@H](Cc1ccccn1)C(=O)O; 3Pal = N[C@@H](Cc1cccnc1)C(=O)O; 4Pal = N[C@@H](Cc1ccncc1)C(=O)O; d2Pal = N[C@H](Cc1ccccn1)C(=O)O; Ac6c = NC1(C(=O)O)CCCCC1; Ac5c = NC1(C(=O)O)CCCC1
Assays:
Y2 receptor = target: T1, Y2 receptor (human, UniProt P49146 1-381); experiment: radioligand competition against [125I]PYY(3-36), SK-N-BE2 membranes, Cheng-Prusoff
T1 construct: whole, on cells; Assayed as membrane homogenates of SK-N-BE2 cells, not intact cells
T1 sequence (looked up): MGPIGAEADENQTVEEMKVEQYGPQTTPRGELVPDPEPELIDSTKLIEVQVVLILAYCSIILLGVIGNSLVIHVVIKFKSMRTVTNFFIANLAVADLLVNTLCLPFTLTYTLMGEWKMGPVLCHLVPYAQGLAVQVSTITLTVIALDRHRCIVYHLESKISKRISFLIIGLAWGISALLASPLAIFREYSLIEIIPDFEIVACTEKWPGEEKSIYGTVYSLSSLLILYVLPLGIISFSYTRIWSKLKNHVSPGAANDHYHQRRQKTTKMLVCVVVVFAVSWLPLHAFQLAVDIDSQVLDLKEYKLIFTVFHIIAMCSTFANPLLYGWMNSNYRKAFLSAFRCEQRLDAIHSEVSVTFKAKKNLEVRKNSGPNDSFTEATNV
Protocol: (§1) The final pellets were resuspended in approximately 20 ml of 50 mM Tris-HCl containing 5.0 mM MgCl₂, 0.1 mg/ml bacitracin, and 0.1% BSA (Buffer B), and held on ice for the receptor binding assay.
(§2) For assay, aliquots (0.4 ml) of the foregoing suspensions were incubated with 0.05 ml of 0.05 nM [¹²⁵I-Leu³¹, Pro³⁴]PYY (Y1 receptor) or [¹²⁵I]PYY(3-36) (Y2 receptor), (each ˜2200 Ci/mmol, New England Nuclear) in Buffer B, with or without 0.05 ml a solution (ranging from 0.01 nM -1000 nM) of an unlabeled competing peptide. After a 120 min incubation (25° C.), the bound radioligand was separated from the free by rapid filtration through GF/C filters, previously soaked in 0.3% polyethyleneimine. […] Inhibition constants (K₁,) were calculated using the well-known Cheng-Prusoff equation.

Y1 receptor = target: T2, Y1 receptor (human, UniProt P25929 1-384); experiment: radioligand competition against [125I-Leu31,Pro34]PYY, SK-N-MC membranes, Cheng-Prusoff
T2 construct: whole, on cells; Assayed as membrane homogenates of SK-N-MC cells, not intact cells; also called NPY Y1
T2 sequence (looked up): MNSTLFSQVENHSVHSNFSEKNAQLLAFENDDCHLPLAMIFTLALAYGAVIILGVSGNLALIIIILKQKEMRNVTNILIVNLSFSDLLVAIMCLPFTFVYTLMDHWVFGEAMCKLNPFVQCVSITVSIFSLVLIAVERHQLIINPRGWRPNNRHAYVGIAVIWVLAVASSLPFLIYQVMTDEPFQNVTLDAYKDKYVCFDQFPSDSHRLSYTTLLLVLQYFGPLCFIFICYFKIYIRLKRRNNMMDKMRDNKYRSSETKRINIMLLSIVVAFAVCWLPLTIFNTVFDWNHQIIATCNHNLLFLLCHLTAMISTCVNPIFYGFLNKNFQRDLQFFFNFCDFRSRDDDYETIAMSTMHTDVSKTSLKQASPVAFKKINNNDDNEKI
Protocol: as §1, §2

B1: Ac-(4Pal^26, Leu^31)hPPY(24-36)NH2 (peptide)
peptide: Ac-LR[4Pal]YLNLLTRQRY-NH2
SMILES: CC(=O)N[C@@H](CC(C)C)C(=O)N[C@@H](CCCNC(=N)N)C(=O)N[C@@H](Cc1ccncc1)C(=O)N[C@@H](Cc1ccc(O)cc1)C(=O)N[C@@H](CC(C)C)C(=O)N[C@@H](CC(N)=O)C(=O)N[C@@H](CC(C)C)C(=O)N[C@@H](CC(C)C)C(=O)N[C@H](C(=O)N[C@@H](CCCNC(=N)N)C(=O)N[C@@H](CCC(N)=O)C(=O)N[C@@H](CCCNC(=N)N)C(=O)N[C@@H](Cc1ccc(O)cc1)C(N)=O)[C@@H](C)O
notes: Also carries Leu at 31 (residue 8 of the peptide), already in the entry
Ki (Y2 receptor): < 1000 nM
Ki (Y1 receptor): < 2000 nM

B2: Ac-[4Pal^26]hPYY(22-36)NH2 (peptide)
peptide: Ac-ASLR[4Pal]YLNLVTRQRY-NH2
SMILES: CC(=O)N[C@@H](C)C(=O)N[C@@H](CO)C(=O)N[C@@H](CC(C)C)C(=O)N[C@@H](CCCNC(=N)N)C(=O)N[C@@H](Cc1ccncc1)C(=O)N[C@@H](Cc1ccc(O)cc1)C(=O)N[C@@H](CC(C)C)C(=O)N[C@@H](CC(N)=O)C(=O)N[C@@H](CC(C)C)C(=O)N[C@H](C(=O)N[C@H](C(=O)N[C@@H](CCCNC(=N)N)C(=O)N[C@@H](CCC(N)=O)C(=O)N[C@@H](CCCNC(=N)N)C(=O)N[C@@H](Cc1ccc(O)cc1)C(N)=O)[C@@H](C)O)C(C)C
notes: Synthetic analog of human PYY(22-36)
Ki (Y2 receptor): < 1000 nM
Ki (Y1 receptor): < 2000 nM

B3: Ac-[A6c^31]hPYY(22-36)NH2 (peptide)
peptide: Ac-ASLRHYLNL[Ac6c]TRQRY-NH2
SMILES: CC(=O)N[C@@H](C)C(=O)N[C@@H](CO)C(=O)N[C@@H](CC(C)C)C(=O)N[C@@H](CCCNC(=N)N)C(=O)N[C@@H](Cc1c[nH]cn1)C(=O)N[C@@H](Cc1ccc(O)cc1)C(=O)N[C@@H](CC(C)C)C(=O)N[C@@H](CC(N)=O)C(=O)N[C@@H](CC(C)C)C(=O)NC1(C(=O)N[C@H](C(=O)N[C@@H](CCCNC(=N)N)C(=O)N[C@@H](CCC(N)=O)C(=O)N[C@@H](CCCNC(=N)N)C(=O)N[C@@H](Cc2ccc(O)cc2)C(N)=O)[C@@H](C)O)CCCCC1
notes: as for B2
Ki (Y2 receptor): < 1000 nM
Ki (Y1 receptor): < 2000 nM

B4: Ac-(Taz^26, Leu^31)hPPY(24-36)NH2 (peptide)
peptide: Ac-LR[Ala(4-thiazolyl)]YLNLLTRQRY-NH2
SMILES: CC(=O)N[C@@H](CC(C)C)C(=O)N[C@@H](CCCNC(=N)N)C(=O)N[C@@H](Cc1cscn1)C(=O)N[C@@H](Cc1ccc(O)cc1)C(=O)N[C@@H](CC(C)C)C(=O)N[C@@H](CC(N)=O)C(=O)N[C@@H](CC(C)C)C(=O)N[C@@H](CC(C)C)C(=O)N[C@H](C(=O)N[C@@H](CCCNC(=N)N)C(=O)N[C@@H](CCC(N)=O)C(=O)N[C@@H](CCCNC(=N)N)C(=O)N[C@@H](Cc1ccc(O)cc1)C(N)=O)[C@@H](C)O
notes: as for B1
Ki (Y2 receptor): < 1000 nM
Ki (Y1 receptor): < 2000 nM

B5: Ac-(2Pal^26, Leu^31)hPPY(24-36)NH2 (peptide)
peptide: Ac-LR[2Pal]YLNLLTRQRY-NH2
SMILES: CC(=O)N[C@@H](CC(C)C)C(=O)N[C@@H](CCCNC(=N)N)C(=O)N[C@@H](Cc1ccccn1)C(=O)N[C@@H](Cc1ccc(O)cc1)C(=O)N[C@@H](CC(C)C)C(=O)N[C@@H](CC(N)=O)C(=O)N[C@@H](CC(C)C)C(=O)N[C@@H](CC(C)C)C(=O)N[C@H](C(=O)N[C@@H](CCCNC(=N)N)C(=O)N[C@@H](CCC(N)=O)C(=O)N[C@@H](CCCNC(=N)N)C(=O)N[C@@H](Cc1ccc(O)cc1)C(N)=O)[C@@H](C)O
notes: as for B1
Ki (Y2 receptor): < 1000 nM
Ki (Y1 receptor): < 2000 nM

B6: Ac-(3Pal^26, Leu^31)hPPY(24-36)NH2 (peptide)
peptide: Ac-LR[3Pal]YLNLLTRQRY-NH2
SMILES: CC(=O)N[C@@H](CC(C)C)C(=O)N[C@@H](CCCNC(=N)N)C(=O)N[C@@H](Cc1cccnc1)C(=O)N[C@@H](Cc1ccc(O)cc1)C(=O)N[C@@H](CC(C)C)C(=O)N[C@@H](CC(N)=O)C(=O)N[C@@H](CC(C)C)C(=O)N[C@@H](CC(C)C)C(=O)N[C@H](C(=O)N[C@@H](CCCNC(=N)N)C(=O)N[C@@H](CCC(N)=O)C(=O)N[C@@H](CCCNC(=N)N)C(=O)N[C@@H](Cc1ccc(O)cc1)C(N)=O)[C@@H](C)O
notes: as for B1
Ki (Y2 receptor): < 1000 nM
Ki (Y1 receptor): < 2000 nM

B7: Ac-[A6C^24, Leu^31]hPYY(24-36)NH2 (peptide)
peptide: Ac-[Ac6c]RHYLNLLTRQRY-NH2
SMILES: CC(=O)NC1(C(=O)N[C@@H](CCCNC(=N)N)C(=O)N[C@@H](Cc2c[nH]cn2)C(=O)N[C@@H](Cc2ccc(O)cc2)C(=O)N[C@@H](CC(C)C)C(=O)N[C@@H](CC(N)=O)C(=O)N[C@@H](CC(C)C)C(=O)N[C@@H](CC(C)C)C(=O)N[C@H](C(=O)N[C@@H](CCCNC(=N)N)C(=O)N[C@@H](CCC(N)=O)C(=O)N[C@@H](CCCNC(=N)N)C(=O)N[C@@H](Cc2ccc(O)cc2)C(N)=O)[C@@H](C)O)CCCCC1
notes: as for B1
Ki (Y2 receptor): < 1000 nM
Ki (Y1 receptor): < 2000 nM

B8: Ac-[A5c^31]hPYY(22-36)NH2 (peptide)
peptide: Ac-ASLRHYLNL[Ac5c]TRQRY-NH2
SMILES: CC(=O)N[C@@H](C)C(=O)N[C@@H](CO)C(=O)N[C@@H](CC(C)C)C(=O)N[C@@H](CCCNC(=N)N)C(=O)N[C@@H](Cc1c[nH]cn1)C(=O)N[C@@H](Cc1ccc(O)cc1)C(=O)N[C@@H](CC(C)C)C(=O)N[C@@H](CC(N)=O)C(=O)N[C@@H](CC(C)C)C(=O)NC1(C(=O)N[C@H](C(=O)N[C@@H](CCCNC(=N)N)C(=O)N[C@@H](CCC(N)=O)C(=O)N[C@@H](CCCNC(=N)N)C(=O)N[C@@H](Cc2ccc(O)cc2)C(N)=O)[C@@H](C)O)CCCC1
notes: as for B2
Ki (Y2 receptor): < 1000 nM
Ki (Y1 receptor): < 2000 nM

B9: Ac-[2Pal^26]hPYY(22-36)NH2 (peptide)
peptide: Ac-ASLR[2Pal]YLNLVTRQRY-NH2
SMILES: CC(=O)N[C@@H](C)C(=O)N[C@@H](CO)C(=O)N[C@@H](CC(C)C)C(=O)N[C@@H](CCCNC(=N)N)C(=O)N[C@@H](Cc1ccccn1)C(=O)N[C@@H](Cc1ccc(O)cc1)C(=O)N[C@@H](CC(C)C)C(=O)N[C@@H](CC(N)=O)C(=O)N[C@@H](CC(C)C)C(=O)N[C@H](C(=O)N[C@H](C(=O)N[C@@H](CCCNC(=N)N)C(=O)N[C@@H](CCC(N)=O)C(=O)N[C@@H](CCCNC(=N)N)C(=O)N[C@@H](Cc1ccc(O)cc1)C(N)=O)[C@@H](C)O)C(C)C
notes: as for B2
Ki (Y2 receptor): < 1000 nM
Ki (Y1 receptor): < 2000 nM

B10: Ac-[A6c^28]hPYY(22-36)NH2 (peptide)
peptide: Ac-ASLRHY[Ac6c]NLVTRQRY-NH2
SMILES: CC(=O)N[C@@H](C)C(=O)N[C@@H](CO)C(=O)N[C@@H](CC(C)C)C(=O)N[C@@H](CCCNC(=N)N)C(=O)N[C@@H](Cc1c[nH]cn1)C(=O)N[C@@H](Cc1ccc(O)cc1)C(=O)NC1(C(=O)N[C@@H](CC(N)=O)C(=O)N[C@@H](CC(C)C)C(=O)N[C@H](C(=O)N[C@H](C(=O)N[C@@H](CCCNC(=N)N)C(=O)N[C@@H](CCC(N)=O)C(=O)N[C@@H](CCCNC(=N)N)C(=O)N[C@@H](Cc2ccc(O)cc2)C(N)=O)[C@@H](C)O)C(C)C)CCCCC1
notes: as for B2
Ki (Y2 receptor): < 1000 nM
Ki (Y1 receptor): < 2000 nM

B11: Ac-[D2Pal^26]hPYY(22-36)NH2 (peptide)
peptide: Ac-ASLR[d2Pal]YLNLVTRQRY-NH2
SMILES: CC(=O)N[C@@H](C)C(=O)N[C@@H](CO)C(=O)N[C@@H](CC(C)C)C(=O)N[C@@H](CCCNC(=N)N)C(=O)N[C@H](Cc1ccccn1)C(=O)N[C@@H](Cc1ccc(O)cc1)C(=O)N[C@@H](CC(C)C)C(=O)N[C@@H](CC(N)=O)C(=O)N[C@@H](CC(C)C)C(=O)N[C@H](C(=O)N[C@H](C(=O)N[C@@H](CCCNC(=N)N)C(=O)N[C@@H](CCC(N)=O)C(=O)N[C@@H](CCCNC(=N)N)C(=O)N[C@@H](Cc1ccc(O)cc1)C(N)=O)[C@@H](C)O)C(C)C
notes: as for B2
Ki (Y2 receptor): < 1000 nM
Ki (Y1 receptor): < 2000 nM

B12: Ac-[A6c^30]hPYY(22-36)NH2 (peptide)
peptide: Ac-ASLRHYLN[Ac6c]VTRQRY-NH2
SMILES: CC(=O)N[C@@H](C)C(=O)N[C@@H](CO)C(=O)N[C@@H](CC(C)C)C(=O)N[C@@H](CCCNC(=N)N)C(=O)N[C@@H](Cc1c[nH]cn1)C(=O)N[C@@H](Cc1ccc(O)cc1)C(=O)N[C@@H](CC(C)C)C(=O)N[C@@H](CC(N)=O)C(=O)NC1(C(=O)N[C@H](C(=O)N[C@H](C(=O)N[C@@H](CCCNC(=N)N)C(=O)N[C@@H](CCC(N)=O)C(=O)N[C@@H](CCCNC(=N)N)C(=O)N[C@@H](Cc2ccc(O)cc2)C(N)=O)[C@@H](C)O)C(C)C)CCCCC1
notes: as for B2
Ki (Y2 receptor): < 1000 nM
Ki (Y1 receptor): < 2000 nM

B13: Ac-[3Pal^26]hPYY(22-36)NH2 (peptide)
peptide: Ac-ASLR[3Pal]YLNLVTRQRY-NH2
SMILES: CC(=O)N[C@@H](C)C(=O)N[C@@H](CO)C(=O)N[C@@H](CC(C)C)C(=O)N[C@@H](CCCNC(=N)N)C(=O)N[C@@H](Cc1cccnc1)C(=O)N[C@@H](Cc1ccc(O)cc1)C(=O)N[C@@H](CC(C)C)C(=O)N[C@@H](CC(N)=O)C(=O)N[C@@H](CC(C)C)C(=O)N[C@H](C(=O)N[C@H](C(=O)N[C@@H](CCCNC(=N)N)C(=O)N[C@@H](CCC(N)=O)C(=O)N[C@@H](CCCNC(=N)N)C(=O)N[C@@H](Cc1ccc(O)cc1)C(N)=O)[C@@H](C)O)C(C)C
notes: as for B2
Ki (Y2 receptor): < 1000 nM
Ki (Y1 receptor): < 2000 nM

Source: patent publication US20060211610A1 (IPSEN PHARMA S A S, published 2006)
